Where two headings read alike, the source gives them in different places. One block for each binder: values may come before it.
What was measured:
[1] = biological target: T1, human Proprotein Convertase Subtilisin-like/Kexin type 9 (UniProt Q8NBP7 31-692); test: ELISA
Target sequence in this assay (Q8NBP7 31-692): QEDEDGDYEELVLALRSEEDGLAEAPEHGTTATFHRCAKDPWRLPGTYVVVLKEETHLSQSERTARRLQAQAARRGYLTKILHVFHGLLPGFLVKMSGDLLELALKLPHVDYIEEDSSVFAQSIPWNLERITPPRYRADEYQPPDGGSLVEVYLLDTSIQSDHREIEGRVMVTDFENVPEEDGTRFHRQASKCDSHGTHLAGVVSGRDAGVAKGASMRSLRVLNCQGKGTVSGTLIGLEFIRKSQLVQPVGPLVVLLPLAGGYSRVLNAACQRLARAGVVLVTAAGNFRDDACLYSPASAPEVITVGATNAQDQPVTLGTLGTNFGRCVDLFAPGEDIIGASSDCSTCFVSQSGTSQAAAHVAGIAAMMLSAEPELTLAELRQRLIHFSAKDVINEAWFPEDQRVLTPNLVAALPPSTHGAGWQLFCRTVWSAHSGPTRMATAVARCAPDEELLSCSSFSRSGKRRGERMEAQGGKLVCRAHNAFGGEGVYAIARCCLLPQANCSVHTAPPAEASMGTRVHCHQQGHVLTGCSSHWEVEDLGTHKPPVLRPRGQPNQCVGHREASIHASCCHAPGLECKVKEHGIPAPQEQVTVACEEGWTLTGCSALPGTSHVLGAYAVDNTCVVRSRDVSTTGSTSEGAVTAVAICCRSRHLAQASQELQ

[2] = biological target: T1, human Proprotein Convertase …; test: ELISA; remark: listed apart in the source
[3] = biological target: T1, human Proprotein Convertase …; test: PCSK9-LDLR blocking ELISA
[4] = biological target: T1, human Proprotein Convertase …; test: ELISA; remark: listed apart in the source
[5] = biological target: T2, cynomolgus monkey PCSK9 (cynomolgus monkey, UniProt A0A7N9D9N8 150-747); test: ELISA
T2 chain: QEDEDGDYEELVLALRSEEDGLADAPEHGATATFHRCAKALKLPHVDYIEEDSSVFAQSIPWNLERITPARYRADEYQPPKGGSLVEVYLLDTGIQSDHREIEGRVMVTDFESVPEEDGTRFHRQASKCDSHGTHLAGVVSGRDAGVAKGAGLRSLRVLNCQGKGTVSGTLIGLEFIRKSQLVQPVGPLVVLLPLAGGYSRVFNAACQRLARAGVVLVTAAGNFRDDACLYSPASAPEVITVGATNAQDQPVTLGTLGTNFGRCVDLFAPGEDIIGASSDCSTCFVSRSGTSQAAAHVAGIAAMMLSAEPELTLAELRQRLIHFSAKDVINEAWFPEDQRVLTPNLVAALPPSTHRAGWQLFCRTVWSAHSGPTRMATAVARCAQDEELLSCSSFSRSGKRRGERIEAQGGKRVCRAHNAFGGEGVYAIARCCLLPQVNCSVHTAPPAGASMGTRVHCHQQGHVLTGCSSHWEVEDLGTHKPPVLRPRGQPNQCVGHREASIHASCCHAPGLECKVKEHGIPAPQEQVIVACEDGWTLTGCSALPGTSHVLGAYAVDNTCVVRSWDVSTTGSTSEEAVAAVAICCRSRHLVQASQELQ

[6] = biological target: T1, human Proprotein Convertase …; test: PCSK9-LDLR blocking ELISA; remark: listed apart in the source

EC50 [1]: 0.0936 nM
B1: Ab2 (antibody, V domains shown)
VH: QSVEESGGRLVTPGTPLTLTCTVSGFSLSSYAMSWVRQAPGKGLEWIGIIDAIDNTYYASWAKGRFTISKTSTTVDLKMTSLTTGDTATYFCARASILGYSIATGFNIWGPGTLVTVSS
VL: AYDMTQTPASVEVAVGGTVTIKCQASQSISSHLAWYQQKSGQPPKLLIYRASTLESGVSSRFKGSGSGTEFTLTISDLECADAATYYCQQGYGVSDVDNGFGGGTEVVVKR

EC50 [2]: 0.943 nM
B2: Ab19 (antibody, V domains shown)
VH: EVQLVESGGGLVQPGGSLRLSCAASGIDLSSYAMGWVRQAPGKGLEYIGIIVSYGPTYYASWAKGRFTISRDNSKNTVYLQMNSLRAEDTATYFCARDLDAQSSGYYGAFNIWGQGTLVTVSS
VL: DIQMTQSPSTLSASVGDRVTITCQASQSISTALAWYQQKPGKAPKLLIYAASPLASGVPSRFSGSGSGTEFTLTISSLQPDDFATYYCQSYYGSSNIAFGGGTKVEIKR

IC50 [3]: 3.3 nM
B3: Ab22 (antibody, V domains shown)
VH: EVQLVESGGGLVQPGGSLRLSCAASGFSLSSYAMNWVRQAPGKGLEWIGAIRSSGATFFASSVNGRFTISRDNSKNTVYLQMNSLRAEDTAVYYCARDTNDGWYINRLDLWGQGTLVTVSS
VL: AVLTQSPSTLSASVGDRVTITCQSSKSVYSNYLSWFQQKPGKAPKFLIYKASTLASGVPSRFSGSGSGTEFTLTISSLQPDDFATYYCAGGDTNIADNAFGGGTKVEIKR

EC50 [4]: 0.301 nM | EC50 [5]: 0.278 nM
B4: Ab17 (antibody, V domains shown)
VH: QEQLEESGGDLVKPEGSLTLTCTASGFSFSSSYWICWVRQAPGKGLEWIGCIRPGSADYYASWAKGRFTISRASSSTVTLQMTSLTAADTATYFCASDINDGWLGQFNLWGPGTLVTVSS
VL: DVVMTQTPASVEAAVGGTVTIKCQASLSIADYLAWYLQKPGQPPKLLIYRASTLASGVPSRFKGSGSGTEYTLTISDLECADAATYYCQSYYSVTTNTYGNTFGGGTEVVVKR

EC50 [4]: 0.286 nM | EC50 [5]: 0.31 nM
B5: Ab16 (antibody, V domains shown)
VH: QEQLVESGGGLVQPEGSLTLTCTASGFSFSSDYWICWVRQAPGKGLEWIGCIRDGGGSYYANWAKGRLTISMTSSTTVGLKMTSLTAADTATYFCASDINDGWLGQFNLWGPGTLVTVSS
VL: DIVMTQTPASVEAAVGGTVTIKCQASQSISSYLAWYQQKPGQPPKLLIYRASTLASGVPSRFSGSGSGTEFTLTISDLECADAATYYCQSYYSVTTVTYGNTFGGGTEVVVKR

IC50 [6]: 1.59 nM
B6: Ab9 (antibody, V domains shown)
VH: QSVEESGGRLVTPGTPLTLTCTVSGIDLSSYAMGWVRQAPGKGLEYIGIIVSYGPTYYASWAKGRFTISKTSTTVDLKITSPTAEDTATYFCARDLDANSSGYYGCFNIWGQGTLVTVSS
VL: AVVLTQTPASVSAAVGGTVTIKCQASQSISTALAWYQQKPGQPPKLLIYAASPLASGVSSRFKSSGSGTEFTLTISDLECADAATYYCQSYYGSSNIAFGGGTELEILR

EC50 [1]: 0.117 nM
B7: Ab1 (antibody, V domains shown)
VH: QSVEESGGRLVTPGTPLTLTCTVSGFSLSSYWMTWVRQAPGKGLEYIGIISSSGSTYYATWAKGRFTISKTSSTTVDLEITSPTTEDTATYFCARDSAFSSGLEFNIWGPGTLVTVSS
VL: AYDLTQTPASVEVAVGGTVTIKCQASQSVYSNWLSWYQQKPGQPPKLLIYDASDLASGVPSRFKGSGSGTQFTLTISGVQCDDAATYYCQQGQSSSDIDNTFGGGTEVVVKR

EC50 [1]: 0.0843 nM
B8: Ab4 (antibody, V domains shown)
VH: QSVEESGGRLVTPGTPLTLTCTVSGIDLSSYAMIWVRQAPEKGLEYIGYIGGIDSTYYASWAKGRFTISKTSTTVDLKMTSPTTEDTATYFCGRWSGTSGYNTIWGPGTLVTVSS
VL: DVVMTQTPASVEAAVGGTVTIKCQASQSIYSNLAWYQQKPGQPPKLLIYGASNLASGVSSRFKGSRSGTEYTLTISDLECADAATYYCQCTGGGDSGNTFGGGTEVVVKR

EC50 [1]: 0.105 nM
B9: Ab3 (antibody, V domains shown)
VH: QSVEESGGRLVTPGGSLTLTCTASGFSLSSYYMSWVRQAPGKGLEWIGIIYPSGSTYYASWAKGRFTISKTSTTVDLKITSPTVEDTATYFCARGGAYATLNLWGPGTLVTVSS
VL: AVLTQTPSPVSAAVGGTVTISCQSSQSVYHNNLLSWYQQKPGQPPKLLIYDASKLTSGVSSRFSGSGSGTQFTLTISGVQCDDAATYYCLGGYDDDADNGFGGGTEVVVKR

From US20160194408A1 (published 2016)
